According to FireProtDB (doi:10.1074/jbc.272.30.18686):

B1: Ribonuclease HI, P0A7Y4 (parent)
chain: MLKQVEIFTDGSCLGNPGPGGYGAILRYRGREKTFSAGYTRTTNNRMELMAAIVALEALKEHCEVILSTDSQYVRQGITQWIHNWKKRGWKTADKKPVKNVDLWQRLDAALGQHQIKWEWVKGHAGHPENERCDELARAAAMNPTLEDTGYQVEV

Variants of: B1
Conditions: Escherichia coli (strain K12), pH 3.2, Thermal, CD, glycine-HCl 10 mM, reversible: yes, structure 2RN2, whole UniProt chain shown; for ddG of mutation (higher = less stable): 53 °C

| Variant | ddG of mutation (higher = less stable) [kcal/mol] | Tm [°C] | change of melting temperature, mutant - wild type (higher = more stable) [°C] | unfolding enthalpy (van 't Hoff) [kcal/mol] |
| --- | --- | --- | --- | --- |
| MLKQVEIFTDGSCLGNPGPGGYGAILRYRGREKTFSAGYTRTTNNRMELMAIIVALEALKEHCEVILSTDSQYARQGITQWIHNWKKRGWKTADKKPVKNVDLWQRLDAALGQHQIKWEWVKGHAGHPENERCDELARAAAMNPTLEDTGYQVEV | -1.19 | 56.9 | 3.9 | 102 |
| MLKQVEIFTDGSCLGNPGPGGYGAILRYRGREKTFSAGYTRTTNNRMELMAIIVALEALKEHCEVILSTDSQYLRQGITQWIHNWKKRGWKTADKKPVKNVDLWQRLDAALGQHQIKWEWVKGHAGHPENERCDELARAAAMNPTLEDTGYQVEV | -1.19 | 56.9 | 3.9 | 122 |
| MLKQVEIFTDGSCLGNPGPGGYGAILRYRGREKTFSAGYTRTTNNRMELMACIVALEALKEHCEVILSTDSQYVRQGITQWIHNWKKRGWKTADKKPVKNVDLWQRLDAALGQHQIKWEWVKGHAGHPENERCDELARAAAMNPTLEDTGYQVEV | -0.8 | 55.5 | 2.5 | 128 |
| MLKQVEIFTDGSCLGNPGPGGYGAILRYRGREKTFSAGYTRTTNNRMELMAQIVALEALKEHCEVILSTDSQYVRQGITQWIHNWKKRGWKTADKKPVKNVDLWQRLDAALGQHQIKWEWVKGHAGHPENERCDELARAAAMNPTLEDTGYQVEV | 1.2 | 49.1 | -3.9 | 90.3 |
| MLKQVEIFTDGSCLGNPGPGGYGAILRYRGREKTFSAGYTRTTNNRMELMAVIVALEALKEHCEVILSTDSQYVRQGITQWIHNWKKRGWKTADKKPVKNVDLWQRLDAALGQHQIKWEWVKGHAGHPENERCDELARAAAMNPTLEDTGYQVEV | -1.7 | 58.5 | 5.5 | 128 |
| MLKQVEIFTDGSCLGNPGPGGYGAILRYRGREKTFSAGYTRTTNNRMELMAEIVALEALKEHCEVILSTDSQYVRQGITQWIHNWKKRGWKTADKKPVKNVDLWQRLDAALGQHQIKWEWVKGHAGHPENERCDELARAAAMNPTLEDTGYQVEV | 1.5 |  |  |  |
| MLKQVEIFTDGSCLGNPGPGGYGAILRYRGREKTFSAGYTRTTNNRMELMAPIVALEALKEHCEVILSTDSQYVRQGITQWIHNWKKRGWKTADKKPVKNVDLWQRLDAALGQHQIKWEWVKGHAGHPENERCDELARAAAMNPTLEDTGYQVEV | 1.6 | 47.6 | -5.4 | 93 |
| MLKQVEIFTDGSCLGNPGPGGYGAILRYRGREKTFSAGYTRTTNNRMELMAMIVALEALKEHCEVILSTDSQYVRQGITQWIHNWKKRGWKTADKKPVKNVDLWQRLDAALGQHQIKWEWVKGHAGHPENERCDELARAAAMNPTLEDTGYQVEV | -0.5 | 54.6 | 1.6 | 112 |
| MLKQVEIFTDGSCLGNPGPGGYGAILRYRGREKTFSAGYTRTTNNRMELMAIIVALEALKEHCEVILSTDSQYVRQGITQWIHNWKKRGWKTADKKPVKNVDLWQRLDAALGQHQIKWEWVKGHAGHPENERCDELARAAAMNPTLEDTGYQVEV | -1.9 | 59.2 | 6.2 | 84.8 |
| MLKQVEIFTDGSCLGNPGPGGYGAILRYRGREKTFSAGYTRTTNNRMELMALIVALEALKEHCEVILSTDSQYVRQGITQWIHNWKKRGWKTADKKPVKNVDLWQRLDAALGQHQIKWEWVKGHAGHPENERCDELARAAAMNPTLEDTGYQVEV | -1.3 |  |  |  |
| MLKQVEIFTDGSCLGNPGPGGYGAILRYRGREKTFSAGYTRTTNNRMELMANIVALEALKEHCEVILSTDSQYVRQGITQWIHNWKKRGWKTADKKPVKNVDLWQRLDAALGQHQIKWEWVKGHAGHPENERCDELARAAAMNPTLEDTGYQVEV | 1.8 | 47.1 | -5.9 | 95.6 |
| MLKQVEIFTDGSCLGNPGPGGYGAILRYRGREKTFSAGYTRTTNNRMELMATIVALEALKEHCEVILSTDSQYVRQGITQWIHNWKKRGWKTADKKPVKNVDLWQRLDAALGQHQIKWEWVKGHAGHPENERCDELARAAAMNPTLEDTGYQVEV | 0.8 | 50.3 | -2.7 | 108 |
| MLKQVEIFTDGSCLGNPGPGGYGAILRYRGREKTFSAGYTRTTNNRMELMADIVALEALKEHCEVILSTDSQYVRQGITQWIHNWKKRGWKTADKKPVKNVDLWQRLDAALGQHQIKWEWVKGHAGHPENERCDELARAAAMNPTLEDTGYQVEV | 1.9 |  |  |  |
| MLKQVEIFTDGSCLGNPGPGGYGAILRYRGREKTFSAGYTRTTNNRMELMAKIVALEALKEHCEVILSTDSQYVRQGITQWIHNWKKRGWKTADKKPVKNVDLWQRLDAALGQHQIKWEWVKGHAGHPENERCDELARAAAMNPTLEDTGYQVEV | 5.9 | 33.5 | -19.5 | 70.8 |
| MLKQVEIFTDGSCLGNPGPGGYGAILRYRGREKTFSAGYTRTTNNRMELMASIVALEALKEHCEVILSTDSQYVRQGITQWIHNWKKRGWKTADKKPVKNVDLWQRLDAALGQHQIKWEWVKGHAGHPENERCDELARAAAMNPTLEDTGYQVEV | 1.8 | 47.2 | -5.8 | 118 |
| MLKQVEIFTDGSCLGNPGPGGYGAILRYRGREKTFSAGYTRTTNNRMELMALIVALEALKEHCEVILSTDSQYARQGITQWIHNWKKRGWKTADKKPVKNVDLWQRLDAALGQHQIKWEWVKGHAGHPENERCDELARAAAMNPTLEDTGYQVEV | -0.36 | 54.2 | 1.2 | 105 |
| MLKQVEIFTDGSCLGNPGPGGYGAILRYRGREKTFSAGYTRTTNNRMELMALIVALEALKEHCEVILSTDSQYLRQGITQWIHNWKKRGWKTADKKPVKNVDLWQRLDAALGQHQIKWEWVKGHAGHPENERCDELARAAAMNPTLEDTGYQVEV | -1.49 | 57.9 | 4.9 | 118 |
| MLKQVEIFTDGSCLGNPGPGGYGAILRYRGREKTFSAGYTRTTNNRMELMAFIVALEALKEHCEVILSTDSQYLRQGITQWIHNWKKRGWKTADKKPVKNVDLWQRLDAALGQHQIKWEWVKGHAGHPENERCDELARAAAMNPTLEDTGYQVEV | -0.03 | 53.1 | 0.1 | 99.8 |
| MLKQVEIFTDGSCLGNPGPGGYGAILRYRGREKTFSAGYTRTTNNRMELMAGIVALEALKEHCEVILSTDSQYLRQGITQWIHNWKKRGWKTADKKPVKNVDLWQRLDAALGQHQIKWEWVKGHAGHPENERCDELARAAAMNPTLEDTGYQVEV | 1.4 | 48.4 | -4.6 | 97.8 |
| MLKQVEIFTDGSCLGNPGPGGYGAILRYRGREKTFSAGYTRTTNNRMELMAVIVALEALKEHCEVILSTDSQYARQGITQWIHNWKKRGWKTADKKPVKNVDLWQRLDAALGQHQIKWEWVKGHAGHPENERCDELARAAAMNPTLEDTGYQVEV | 0.52 | 51.3 | -1.7 | 107 |
